From paper PMC3139566 (Biochemistry, 2011)
Where no end group is shown, it is not given here. [ ]: non-standard residue; d: D form. pY = N[C@@H](Cc1ccc(OP(=O)(O)O)cc1)C(=O)O

T1: Fe65 N-term-WW-PID1-PID2 1-662 (human, UniProt O00213-2 1-662)
T1 sequence (looked up): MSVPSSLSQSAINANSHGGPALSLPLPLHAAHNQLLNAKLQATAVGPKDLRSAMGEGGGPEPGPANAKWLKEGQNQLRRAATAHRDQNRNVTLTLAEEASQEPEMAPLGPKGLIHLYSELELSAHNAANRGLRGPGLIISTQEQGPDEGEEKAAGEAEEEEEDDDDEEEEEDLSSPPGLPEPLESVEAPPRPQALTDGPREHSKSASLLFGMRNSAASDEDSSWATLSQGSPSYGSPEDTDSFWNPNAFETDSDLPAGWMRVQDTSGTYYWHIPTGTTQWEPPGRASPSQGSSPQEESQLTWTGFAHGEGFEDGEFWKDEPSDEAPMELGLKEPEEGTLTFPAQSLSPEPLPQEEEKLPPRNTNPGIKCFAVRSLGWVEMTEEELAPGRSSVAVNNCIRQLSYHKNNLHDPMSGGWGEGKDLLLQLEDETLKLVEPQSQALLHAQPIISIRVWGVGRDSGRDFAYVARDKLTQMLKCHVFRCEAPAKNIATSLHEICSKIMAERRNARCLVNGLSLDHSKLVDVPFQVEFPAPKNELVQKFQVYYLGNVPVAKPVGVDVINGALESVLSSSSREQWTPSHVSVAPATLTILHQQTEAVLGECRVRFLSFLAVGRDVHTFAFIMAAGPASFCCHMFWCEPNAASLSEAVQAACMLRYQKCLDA

T2: Fe65 WW-PID1 236-512 (human, UniProt O00213-2 236-512)
T2 sequence (looked up): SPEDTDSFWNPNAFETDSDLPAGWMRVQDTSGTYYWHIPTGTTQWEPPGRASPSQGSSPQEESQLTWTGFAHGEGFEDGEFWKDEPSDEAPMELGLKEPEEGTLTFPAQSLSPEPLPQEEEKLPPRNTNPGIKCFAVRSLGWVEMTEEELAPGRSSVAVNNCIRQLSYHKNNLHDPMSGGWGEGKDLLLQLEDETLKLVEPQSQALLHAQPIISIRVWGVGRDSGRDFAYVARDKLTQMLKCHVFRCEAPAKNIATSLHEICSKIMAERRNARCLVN

T3: Fe65 WW-PID1-PID2 236-662 (human, UniProt O00213-2 236-662)
T3 sequence (looked up): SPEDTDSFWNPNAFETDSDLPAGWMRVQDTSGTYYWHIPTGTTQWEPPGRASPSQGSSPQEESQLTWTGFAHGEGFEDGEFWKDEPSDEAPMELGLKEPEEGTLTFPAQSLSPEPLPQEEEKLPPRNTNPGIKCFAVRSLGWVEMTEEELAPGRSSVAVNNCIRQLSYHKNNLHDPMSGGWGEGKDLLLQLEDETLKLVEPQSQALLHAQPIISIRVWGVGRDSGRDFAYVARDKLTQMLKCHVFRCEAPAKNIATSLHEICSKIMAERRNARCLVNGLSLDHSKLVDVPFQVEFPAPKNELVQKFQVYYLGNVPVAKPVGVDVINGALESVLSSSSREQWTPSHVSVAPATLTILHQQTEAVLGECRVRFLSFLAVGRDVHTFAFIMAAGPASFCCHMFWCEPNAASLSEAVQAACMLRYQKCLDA


Legend:
[1] = molecular target: T1, Fe65 N-term-WW-PID1-PID2 1-662; experiment: SPR
Fe65 WW-PID1 236-512 = molecular target: T2, Fe65 WW-PID1 236-512; experiment: fluorescence polarisation
[2] = molecular target: T3, Fe65 WW-PID1-PID2 236-662; experiment: fluorescence polarisation

| Kd [1] [µM] | Kd (Fe65 WW-PID1 236-512) [µM] | Kd [2] [µM] | Binder |
| --- | --- | --- | --- |
| 2.5 ± 0.35 | – | – | APP Intracellular Domain (AICD, residues 649-695), biotinylated at the N-terminal cysteine (domain or fragment, biotin (biotin-maleimide) on the N-terminal cysteine) GSKLCKKKQYTSIHHGVVEVDAAVTPEERHLSKMQQNGYENPTYKFFEQMQN |
| – | 66.7 | 48.3 | LRP4488 phosphorylated at Y4507 (pYLRP4488) labeled with Oregon Green 488 (domain or fragment, human) C(Oregon Green 488 maleimide)LDADFALDPDKPTNFTNPV[pY]ATLYMGGHGSRHSLASTDEKRELLGRGPEDEIGDPLA |
